Here are results for one molecule from US20110229476A1 (Bayer, published 2011).

This experiment concerns the target T1, tumor-associated antigen RG1 (Homo sapiens (Human), UniProt Q9BUD6 27-331).
T1 construct: Coated directly on 96-well plates at 1 ug/ml; also called RGI
T1 sequence: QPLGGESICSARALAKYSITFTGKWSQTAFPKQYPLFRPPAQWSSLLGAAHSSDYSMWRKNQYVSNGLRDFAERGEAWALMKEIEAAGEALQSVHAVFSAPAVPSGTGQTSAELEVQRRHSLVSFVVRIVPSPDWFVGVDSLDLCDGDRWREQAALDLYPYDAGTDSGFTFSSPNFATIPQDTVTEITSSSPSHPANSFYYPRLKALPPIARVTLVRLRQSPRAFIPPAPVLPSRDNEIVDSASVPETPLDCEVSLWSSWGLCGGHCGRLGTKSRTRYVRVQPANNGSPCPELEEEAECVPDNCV
Briefly: RG1-binding ELISA, RG1 coated on plate, 4-parameter fit.

Experimental: RG1-binding ELISA. A bispecific antibody containing Linker 1, anti-RG1 antibody 19G9, and polyclonal nonimmune control human IgG kappa were analyzed for binding to RG-1. Curve fitting of the data was performed using a 4-parameter equation with the Solver function in Microsoft Excel.
Ninety-six well plates were coated with RG1 (1 μg/ml) by overnight incubation, and the plates were then washed (5×) with PBS containing 0.5% Tween-20. Samples and controls (serially diluted) were added to the wells and incubated for 1 hr, followed by washes (5×) with PBS containing 0.5% Tween-20. Horserandish peroxidase (HRP)-conjugated anti-human IgG or HRP-conjugated anti-human Fab were diluted in PBS (1:5000) and added to each well. Following a 1 hr incubation, the plates were washed again. Amplex Red (10 μg/ml) was added to each well, and the signal was read using a plate reader. The data was analyzed using Softmax (Molecular Devices, Sunnyvale, Calif.).

B1: anti-RG1 IgG 19G9 (antibody, V domains shown)
VH: QVQLVQSGGGLVQPGGSLRLSCAGSGFTFSSYVMHWLRQAPGKGLEWVSVIGTGGVTHYADSVKGRFTISRDNAKNSLYLQMNSLRAEDTAVYYCARWGYYGSGSYENDAFDIWGQGTMVTVSS
VL: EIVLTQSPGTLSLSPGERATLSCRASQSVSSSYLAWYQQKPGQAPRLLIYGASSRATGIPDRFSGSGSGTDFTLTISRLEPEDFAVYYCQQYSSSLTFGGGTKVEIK
By IC50 is commonly meant the concentration needed to halve the response being measured. Low readings indicate higher potency, high ones lower potency. With B1, the IC50 is 1.4 nM.
